By Kd is commonly meant the equilibrium constant for the complex coming apart. For orientation: koff means the first-order rate constant of dissociation. Read a low koff as a long-lived complex. A word on the kon: it is the second-order rate constant of association. A lower kon goes with slower complex formation.

This note sets out measurements from patent US20220162341A1 (published 2022).

In experiment [1] the target is T1, ASPH (aspartyl (asparaginyl) β-hydroxylase) (Homo sapiens (Human)) (UniProt Q12797).
T1 sequence: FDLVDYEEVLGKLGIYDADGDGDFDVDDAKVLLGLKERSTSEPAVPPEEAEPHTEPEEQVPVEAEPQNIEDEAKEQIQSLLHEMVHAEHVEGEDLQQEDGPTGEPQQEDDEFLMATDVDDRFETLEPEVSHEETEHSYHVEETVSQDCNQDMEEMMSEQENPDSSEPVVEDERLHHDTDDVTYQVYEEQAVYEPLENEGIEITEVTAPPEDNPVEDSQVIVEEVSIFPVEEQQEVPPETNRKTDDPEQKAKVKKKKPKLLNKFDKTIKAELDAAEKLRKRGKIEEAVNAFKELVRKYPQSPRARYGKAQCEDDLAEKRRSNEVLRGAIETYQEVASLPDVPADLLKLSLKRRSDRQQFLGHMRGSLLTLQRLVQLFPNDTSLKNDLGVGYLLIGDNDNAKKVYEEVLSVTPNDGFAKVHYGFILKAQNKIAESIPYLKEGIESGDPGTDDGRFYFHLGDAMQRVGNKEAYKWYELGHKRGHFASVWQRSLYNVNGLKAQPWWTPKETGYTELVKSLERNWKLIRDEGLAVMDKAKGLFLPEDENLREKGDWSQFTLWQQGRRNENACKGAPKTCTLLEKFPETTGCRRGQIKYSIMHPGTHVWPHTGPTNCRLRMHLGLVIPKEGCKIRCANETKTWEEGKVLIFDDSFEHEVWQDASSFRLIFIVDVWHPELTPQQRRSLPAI
As to the kind of experiment: SPR (SensiQ Pioneer), antibody captured via Protein G, ASPH as analyte.

The target of experiment [2] is T2, ASPH (aspartyl (asparaginyl) β-hydroxylase) (Homo sapiens (Human), UniProt Q12797 75-758, limits assumed).
T2 construct: The antibodies were raised against a peptide of human ASPH; also called the ASPH protein
T2 sequence: T1 sequence
Described as above.

B1: 5H4/5K3 (antibody, V domains shown)
VH: QSLEESGGDLVKPGASLTLTCKASGFDFSSNAMCWVRQAPGKGPEWIACIDNGDGSTDYATWAKGRFTISKTSSTTVTLQMTSLTAADTATYFCTRNFNLWGQGTLVTVSS
VL: AQVLTQTASSVSAAVGGTVTISCQSSQSVYDNNRLAWFQQKPGQPPKLLIYETSKLASGVPLRFKGSGSGTQFTLTISDLECDDAATYYCLGSYSGYIYTFGGGTEVVVKG
With B1, in experiment [1], the Kd amounted to 144 nM, the koff turned out to be 0.00243 s⁻¹ and the kon amounted to 16800 M⁻¹ s⁻¹.

B2: 5H1/5K1 (antibody, V domains shown)
VH: B1 VH
VL: AQVLTQTASSVSAAVGGTVTISCQSSQSVYDNNRLAWFQQKPGQPPKLLIYETSKLASGVPLRFKGSGSGTQFTLTISDLECDDAATYYCLGSYSGYIYTFGGGTEVVVK
B2: in experiment [2], the Kd was 118 nM and the kon amounted to 20400 M⁻¹ s⁻¹.
